Three molecules from article PMC10050235, “Structural basis of Ty1 integrase tethering to RNA polymerase III for targeted retrotransposon integration” (Nature Communications, 2023) can be followed below.

T1: Pol III subunit C160 (within purified Pol III) (S. cerevisiae (endogenous in strain …, UniProt P04051 1-1460))
T1 construct: RNA polymerase III largest subunit C160, S. cerevisiae; Subunit of m2, written alone for the pairs that touch in the structures; source: endogenous, S. cerevisiae strain SC1613, purified as part of Pol III (IgG Sepharose, TEV elution, Mono-Q)
T1 sequence (looked up): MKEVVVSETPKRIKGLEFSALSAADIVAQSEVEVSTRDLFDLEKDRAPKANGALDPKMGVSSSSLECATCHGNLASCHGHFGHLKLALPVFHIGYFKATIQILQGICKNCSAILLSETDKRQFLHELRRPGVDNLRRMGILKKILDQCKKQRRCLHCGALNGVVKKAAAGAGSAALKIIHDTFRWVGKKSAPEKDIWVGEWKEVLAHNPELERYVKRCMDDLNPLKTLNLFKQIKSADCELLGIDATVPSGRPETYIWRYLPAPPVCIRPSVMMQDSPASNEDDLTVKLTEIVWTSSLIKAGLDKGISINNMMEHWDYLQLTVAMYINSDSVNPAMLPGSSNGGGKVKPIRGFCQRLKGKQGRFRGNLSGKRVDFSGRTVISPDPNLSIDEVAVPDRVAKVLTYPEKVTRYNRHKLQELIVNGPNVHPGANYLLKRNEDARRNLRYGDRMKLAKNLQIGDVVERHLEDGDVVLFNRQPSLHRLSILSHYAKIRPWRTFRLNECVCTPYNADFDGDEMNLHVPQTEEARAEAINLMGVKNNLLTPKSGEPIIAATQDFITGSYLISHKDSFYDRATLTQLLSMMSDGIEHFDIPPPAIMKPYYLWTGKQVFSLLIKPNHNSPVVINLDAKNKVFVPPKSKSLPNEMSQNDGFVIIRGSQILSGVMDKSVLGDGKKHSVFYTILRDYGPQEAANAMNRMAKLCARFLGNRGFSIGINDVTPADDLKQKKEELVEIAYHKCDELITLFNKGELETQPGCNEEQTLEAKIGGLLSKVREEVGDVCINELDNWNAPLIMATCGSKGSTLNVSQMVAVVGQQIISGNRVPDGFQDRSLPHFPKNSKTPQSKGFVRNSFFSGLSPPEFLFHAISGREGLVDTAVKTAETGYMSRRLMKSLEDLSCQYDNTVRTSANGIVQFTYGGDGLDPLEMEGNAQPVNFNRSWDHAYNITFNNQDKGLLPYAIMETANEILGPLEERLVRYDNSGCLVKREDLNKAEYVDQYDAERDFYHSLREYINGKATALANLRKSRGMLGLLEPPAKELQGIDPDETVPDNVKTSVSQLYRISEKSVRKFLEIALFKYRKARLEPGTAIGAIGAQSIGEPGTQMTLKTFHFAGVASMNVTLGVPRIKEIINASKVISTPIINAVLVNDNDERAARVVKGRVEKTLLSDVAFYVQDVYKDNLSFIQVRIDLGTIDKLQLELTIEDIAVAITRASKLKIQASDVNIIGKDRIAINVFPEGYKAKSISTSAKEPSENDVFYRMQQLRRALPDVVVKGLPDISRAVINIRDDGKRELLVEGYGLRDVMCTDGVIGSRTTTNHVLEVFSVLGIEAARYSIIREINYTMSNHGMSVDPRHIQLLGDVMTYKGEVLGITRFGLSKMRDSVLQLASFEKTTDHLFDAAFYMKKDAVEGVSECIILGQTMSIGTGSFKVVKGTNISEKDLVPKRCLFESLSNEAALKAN

T2: Pol III subunit C37 (within purified Pol III) (S. cerevisiae (endogenous in strain …, UniProt P36121 1-282))
T2 construct: RNA polymerase III subunit C37, S. cerevisiae; Subunit of m2, written alone for the pairs that touch in the structures; source: endogenous, S. cerevisiae strain SC1613, purified as part of Pol III (IgG Sepharose, TEV elution, Mono-Q)
T2 sequence (looked up): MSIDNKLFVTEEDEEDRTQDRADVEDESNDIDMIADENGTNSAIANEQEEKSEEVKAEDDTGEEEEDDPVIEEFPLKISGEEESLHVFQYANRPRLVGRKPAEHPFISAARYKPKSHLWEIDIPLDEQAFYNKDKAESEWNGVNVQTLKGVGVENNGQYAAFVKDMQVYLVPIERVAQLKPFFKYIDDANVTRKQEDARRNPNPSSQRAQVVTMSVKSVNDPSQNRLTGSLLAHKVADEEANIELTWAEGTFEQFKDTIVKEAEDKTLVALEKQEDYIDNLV

T3: Pol III subunit C128 (within purified Pol III) (S. cerevisiae (endogenous in strain …, UniProt P22276 1-1149))
T3 construct: RNA polymerase III second largest subunit C128, S. cerevisiae; Subunit of m2, written alone for the pairs that touch in the structures; source: endogenous, S. cerevisiae strain SC1613, purified as part of Pol III (IgG Sepharose, TEV elution, Mono-Q)
T3 sequence (looked up): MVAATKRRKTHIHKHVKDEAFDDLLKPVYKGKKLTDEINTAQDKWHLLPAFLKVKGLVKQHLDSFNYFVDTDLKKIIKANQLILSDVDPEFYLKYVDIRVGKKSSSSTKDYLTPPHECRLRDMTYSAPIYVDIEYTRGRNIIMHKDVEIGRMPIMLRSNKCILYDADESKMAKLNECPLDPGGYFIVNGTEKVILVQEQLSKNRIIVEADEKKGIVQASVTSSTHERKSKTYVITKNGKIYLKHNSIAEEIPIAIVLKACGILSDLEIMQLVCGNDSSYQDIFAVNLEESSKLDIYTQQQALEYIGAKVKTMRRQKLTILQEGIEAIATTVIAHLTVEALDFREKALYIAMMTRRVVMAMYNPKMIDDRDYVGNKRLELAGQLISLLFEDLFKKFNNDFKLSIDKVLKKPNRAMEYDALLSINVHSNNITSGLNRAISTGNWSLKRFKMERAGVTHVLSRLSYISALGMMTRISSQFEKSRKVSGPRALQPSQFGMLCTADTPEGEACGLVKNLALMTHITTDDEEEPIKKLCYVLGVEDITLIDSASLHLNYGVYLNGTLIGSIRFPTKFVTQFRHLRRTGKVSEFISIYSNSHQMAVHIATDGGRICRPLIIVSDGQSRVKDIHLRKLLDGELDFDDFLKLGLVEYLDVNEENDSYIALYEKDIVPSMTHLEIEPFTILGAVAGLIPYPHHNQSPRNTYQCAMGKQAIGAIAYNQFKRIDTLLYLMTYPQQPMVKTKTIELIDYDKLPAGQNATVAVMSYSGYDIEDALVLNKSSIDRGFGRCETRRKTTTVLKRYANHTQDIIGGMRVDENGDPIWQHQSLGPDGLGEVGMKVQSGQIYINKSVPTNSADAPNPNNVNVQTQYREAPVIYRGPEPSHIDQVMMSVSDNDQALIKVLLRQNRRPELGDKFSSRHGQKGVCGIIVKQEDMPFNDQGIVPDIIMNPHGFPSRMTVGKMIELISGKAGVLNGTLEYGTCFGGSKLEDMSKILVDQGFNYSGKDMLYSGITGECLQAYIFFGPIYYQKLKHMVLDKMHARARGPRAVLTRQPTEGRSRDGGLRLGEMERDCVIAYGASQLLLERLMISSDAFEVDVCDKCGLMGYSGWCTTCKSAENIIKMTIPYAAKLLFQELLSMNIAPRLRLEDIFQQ

B1: Pol III subunit C53 (within purified Pol III) (natural protein, UniProt P25441 1-422, looked up)
chain: MSSNKGNGRLPSLKDSSSNGGGSAKPSLKFKPKAVARKSKEEREAAASKVKLEEESKRGNDKKHFNNKNKRVTGAGGQQRRMAKYLNNTHVISSGPLAAGNFVSEKGDLRRGFIKSEGSGSSLVQKGLETIDNGAESSENEAEDDDNEGVASKSKKKFNMGKEFEARNLIEDEDDGESEKSSDVDMDDEEWRSKRIEQLFPVRPVRVRHEDVETVKREIQEALSEKPTREPTPSVKTEPVGTGLQSYLEERERQVNEKLADLGLEKEFQSVDGKEAAAELELLNADHQHILRKLKKMNNKPERFMVFQLPTRLPAFERPAVKEEKEDMETQASDPSKKKKNIKKKDTKDALSTRELAGKVGSIRVHKSGKLSVKIGNVVMDIGKGAETTFLQDVIALSIADDASSAELLGRVDGKIVVTPQI
notes: RNA polymerase III subunit C53, S. cerevisiae; N-terminal low-complexity region C53-Nt is residues 1-274; Subunit of m2, written alone for the pairs that touch in the structures; source: endogenous, S. cerevisiae strain SC1613, purified as part of Pol III (IgG Sepharose, TEV elution, Mono-Q)
B2: Pol III subunit C11 (within purified Pol III) (natural protein, UniProt Q04307 1-110, looked up)
chain: MLSFCPSCNNMLLITSGDSGVYTLACRSCPYEFPIEGIEIYDRKKLPRKEVDDVLGGGWDNVDQTKTQCPNYDTCGGESAYFFQLQIRSADEPMTTFYKCVNCGHRWKEN
notes: RNA polymerase III subunit C11, S. cerevisiae; two Zn-ribbons (residues 1-36 and 64-110) joined by a linker (37-63); Subunit of m2, written alone for the pairs that touch in the structures; source: endogenous, S. cerevisiae strain SC1613, purified as part of Pol III (IgG Sepharose, TEV elution, Mono-Q)

The target in assay [1] is RNA polymerase III (Pol III), 17 subunits, isolated from yeast (S. cerevisiae (endogenous in strain SC1613)) (UniProt P04051). Put plainly: native gel or EMSA; recombinant IN1 mixed with Pol III isolated from yeast, free of nucleic acids; native gel electrophoresis. (Mobility shift assays separate free from complexed probe on a gel.)
For assay [2], the target named is T1, Pol III subunit C160 (within purified …). As to the kind of experiment: cryo-EM structure; Pol III and IN1 both at 0.5 uM in 20 mM HEPES-NaOH pH 7.5, 170 mM NaCl, 2 mM DTT, 30 min at 4 °C; crosslinked with 0.06% glutaraldehyde; no nucleic acids (maps A-C). The settings on record: both partners purified.
Assay [3] has as its target T2, Pol III subunit C37 (within purified …). Described as above. The settings on record: both partners purified.
For assay [4], the target named is T3, Pol III subunit C128 (within purified …). The assay is described as above. To be noted: both partners purified.
For assay [5], the target named is B1. Described as above. The settings on record: both partners purified.
The target of assay [6] is T1, Pol III subunit C160 (within purified …). Put plainly: cryo-EM structure; Pol III-DNA (0.4 uM, mismatched transcription bubble) mixed with 0.6 uM IN1, 30 min at 20 °C in 10 mM Hepes pH 7.5, 150 mM NaCl, 5 mM MgCl2, 5 mM DTT; 8 mM CHAPSO on the grid (map D). To be noted: both partners purified.

The stoichiometry N is the number of molecules, sites or subunits per partner or assembly. For “Ty1 integrase (IN1), recombinant (from UniProt Q12414 583-1217) (enzyme)”, the stoichiometry N in assay [1] was determined as 1.
As for B1, the binding result in assay [2] is given as “binds”.
B2: the binding result in assay [3], in assay [4], in assay [5] and in assay [6] was “binds” throughout.
